Test [1] addresses T1, GST-MDMX containing full-length human MDMX (human, UniProt O15151 1-490).
T1 construct: mature; MDMX', expressed in E. coli as a GST fusion; 'mature' stands for full-length; not shown: GST tag
T1 sequence (looked up): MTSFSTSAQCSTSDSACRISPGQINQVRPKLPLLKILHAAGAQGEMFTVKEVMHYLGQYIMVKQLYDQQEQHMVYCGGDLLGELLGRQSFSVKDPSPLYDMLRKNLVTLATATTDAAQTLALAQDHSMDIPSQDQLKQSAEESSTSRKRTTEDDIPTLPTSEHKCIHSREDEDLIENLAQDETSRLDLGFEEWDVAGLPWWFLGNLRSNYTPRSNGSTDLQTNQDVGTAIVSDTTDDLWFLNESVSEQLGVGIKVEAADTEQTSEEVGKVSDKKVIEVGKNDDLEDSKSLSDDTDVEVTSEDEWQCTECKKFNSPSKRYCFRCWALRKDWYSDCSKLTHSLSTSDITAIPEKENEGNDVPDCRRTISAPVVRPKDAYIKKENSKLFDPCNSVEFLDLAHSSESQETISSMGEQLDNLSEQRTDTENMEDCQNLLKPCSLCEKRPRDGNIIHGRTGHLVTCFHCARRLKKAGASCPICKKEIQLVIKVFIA
The test can be described thus: competition ELISA: peptide inhibits GST-MDMX binding to coated His6-p53.

Test [2] addresses T1, GST-MDMX containing full-length human …. The test can be described thus: competition ELISA, against linear peptide 3. In general terms: An ELISA detects its analyte on a solid surface through an enzyme-linked reagent.
Test [3] concerns the target T2, GST-MDM2 containing full-length human MDM2 (human, UniProt Q00987 1-491).
T2 construct: mature; 'mature' stands for full-length; not shown: GST tag
The test can be described thus: competition ELISA: peptide inhibits GST-MDM2 binding to coated His6-p53.

The target of test [4] is GST-Mcl-1. Nature of the test: competitive FP assay, against the parent linear peptide.
For test [5], the target named is GST-Mcl-1. Nature of the test: competitive FP assay: displacement of fluorescein-labeled Bak from GST-Mcl-1.
The target in test [6] is GST-Mcl-1. The test can be described thus: ELISA (format not described; target taken to be Mcl-1).
In test [7] the target is GST-Mcl-1. Nature of the test: fluorescence polarization assay, Mcl-1 against Bcl-xL. In general terms: In fluorescence polarisation assays a small probe gives low polarisation when free and higher when bound to something large.
Test [8] addresses GST-Mcl-1. The test can be described thus: fluorescence polarization assay, labeled peptide on GST-Mcl-1.
The target in a further test is GST-Bcl-xL. Nature of the test: fluorescence polarization assay, labeled peptide on GST-Bcl-xL.
Test [9] concerns the target GST-Mcl-1. The test can be described thus: ELISA; the upper end is tied to 5b by Table 3 (25 nM against 340 nM).
The target in test [10] is T2, GST-MDM2 containing full-length human …. Nature of the test: competition ELISA; reference not named in the sentence (peptide 1 or PDI).

Numbered stars: 1 amine (or outer) side, 2 acyl side, 3 side chain; on linkers, the order of the positions; unused ones are H or OH. Bridge positions count the residues as written; N and C are the ends. Square brackets hold non-standard residues; d marks the D form. Ends that are not written are not given here. CH2(3,3'-bipyridine-6,6')CH2 = c1cc(C[*:1])ncc1-c1ccc(C[*:2])nc1; Biphenyl(4,4'-CH2)2 = c1cc(-c2ccc(C[*:2])cc2)ccc1C[*:1] Bounds are passed on as bounds.

Chain of GST-Mcl-1 (Q07820 whole entry): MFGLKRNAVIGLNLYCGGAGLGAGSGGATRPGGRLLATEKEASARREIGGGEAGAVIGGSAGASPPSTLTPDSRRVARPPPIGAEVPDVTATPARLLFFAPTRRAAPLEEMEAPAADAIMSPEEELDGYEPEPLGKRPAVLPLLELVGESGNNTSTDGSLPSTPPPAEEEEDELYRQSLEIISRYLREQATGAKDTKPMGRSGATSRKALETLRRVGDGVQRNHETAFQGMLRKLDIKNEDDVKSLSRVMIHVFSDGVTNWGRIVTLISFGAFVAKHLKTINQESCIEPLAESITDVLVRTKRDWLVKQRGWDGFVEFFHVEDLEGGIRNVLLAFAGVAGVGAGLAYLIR
T2 sequence (Q00987 whole entry): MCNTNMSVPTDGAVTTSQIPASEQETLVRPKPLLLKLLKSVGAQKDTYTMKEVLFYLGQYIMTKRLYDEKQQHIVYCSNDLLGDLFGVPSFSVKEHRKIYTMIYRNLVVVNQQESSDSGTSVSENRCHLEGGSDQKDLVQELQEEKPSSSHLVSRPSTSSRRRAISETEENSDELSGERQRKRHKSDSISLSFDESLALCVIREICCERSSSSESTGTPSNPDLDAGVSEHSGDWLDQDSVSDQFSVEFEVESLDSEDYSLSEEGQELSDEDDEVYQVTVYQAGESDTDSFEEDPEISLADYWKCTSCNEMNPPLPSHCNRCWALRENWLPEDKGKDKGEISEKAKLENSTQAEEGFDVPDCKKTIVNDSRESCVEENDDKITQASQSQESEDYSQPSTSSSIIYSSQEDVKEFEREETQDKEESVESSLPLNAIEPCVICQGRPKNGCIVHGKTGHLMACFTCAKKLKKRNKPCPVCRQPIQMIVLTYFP
Chain of GST-Bcl-xL (Q07817 whole entry): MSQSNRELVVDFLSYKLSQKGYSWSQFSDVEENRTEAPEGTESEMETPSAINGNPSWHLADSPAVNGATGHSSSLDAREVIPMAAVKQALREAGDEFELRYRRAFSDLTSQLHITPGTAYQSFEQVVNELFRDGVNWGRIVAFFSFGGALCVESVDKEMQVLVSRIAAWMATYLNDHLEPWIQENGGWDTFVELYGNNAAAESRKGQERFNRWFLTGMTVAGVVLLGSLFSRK

B1: PDI analog 3b (Bpy cross-linked D,L-dicysteine peptide) (peptide)
peptide: Ac-LTF[dC]HYWAQLCS-NH2
modifications: linker 4-11 via CH2(3,3'-bipyridine-6,6')CH2
SMILES: CC(=O)N[C@@H](CC(C)C)C(=O)N[C@H](C(=O)N[C@@H](Cc1ccccc1)C(=O)N[C@@H]1CSCc2ccc(cn2)-c2ccc(nc2)CSC[C@@H](C(=O)N[C@@H](CO)C(N)=O)NC(=O)[C@H](CC(C)C)NC(=O)[C@H](CCC(N)=O)NC(=O)[C@H](C)NC(=O)[C@H](Cc2c[nH]c3ccccc23)NC(=O)[C@H](Cc2ccc(O)cc2)NC(=O)[C@H](Cc2c[nH]cn2)NC1=O)[C@@H](C)O
notes: Printed as LTFc"HYWAQLC"S
On to B1, for which the values for the IC50 in test [1] and in test [3] were 14 nM and 5.4 nM, respectively. Besides, the “fold increase in MDMX activity” value in test [2] was found to be 24 fold.

B2: Cross-linked Noxa peptide 6a (Bph, D-Cys 77 / L-Cys 84) (peptide)
peptide: AAXLRRIGDXVNLRQKLLN
modifications: D-cysteine at position 3; D-Cys 3 and L-Cys 10 cross-linked by Bph; N-terminal acetyl; C-terminal amide
With B2, the “fold increase in activity” value in the test with GST-Mcl-1 [4] was determined as 37 fold. Moreover, the values for the IC50 with GST-Mcl-1 [5] and with GST-Mcl-1 [6] were 73 nM and 260 nM, respectively.

B3: PDI analog 1b (Bpy cross-linked L,L-dicysteine peptide) (peptide)
peptide: Ac-LTFCHYWAQLCS-NH2
modifications: linker 4-11 via CH2(3,3'-bipyridine-6,6')CH2
SMILES: CC(=O)N[C@@H](CC(C)C)C(=O)N[C@H](C(=O)N[C@@H](Cc1ccccc1)C(=O)N[C@H]1CSCc2ccc(cn2)-c2ccc(nc2)CSC[C@@H](C(=O)N[C@@H](CO)C(N)=O)NC(=O)[C@H](CC(C)C)NC(=O)[C@H](CCC(N)=O)NC(=O)[C@H](C)NC(=O)[C@H](Cc2c[nH]c3ccccc23)NC(=O)[C@H](Cc2ccc(O)cc2)NC(=O)[C@H](Cc2c[nH]cn2)NC1=O)[C@@H](C)O
notes: Printed as LTFC"HYWAQLC"S (C" = Bpy-linked cysteine)
Turning to B3, the IC50 in [1] is 890 nM; in [3], 35 nM.

B4: PDI analog 4b (Bpy cross-linked D,L-dicysteine peptide, two arginines) (peptide)
peptide: Ac-LTF[dC]RYWARLCS-NH2
modifications: linker 4-11 via CH2(3,3'-bipyridine-6,6')CH2
SMILES: CC(=O)N[C@@H](CC(C)C)C(=O)N[C@H](C(=O)N[C@@H](Cc1ccccc1)C(=O)N[C@@H]1CSCc2ccc(cn2)-c2ccc(nc2)CSC[C@@H](C(=O)N[C@@H](CO)C(N)=O)NC(=O)[C@H](CC(C)C)NC(=O)[C@H](CCCNC(=N)N)NC(=O)[C@H](C)NC(=O)[C@H](Cc2c[nH]c3ccccc23)NC(=O)[C@H](Cc2ccc(O)cc2)NC(=O)[C@H](CCCNC(=N)N)NC1=O)[C@@H](C)O
notes: Printed as LTFc"RYWARLC"S
In test [1], B4 returned an IC50 of 1150 nM.

B5: PDI analog 2b (Bpy cross-linked, two arginines) (peptide)
peptide: Ac-LTFCRYWARLCS-NH2
modifications: linker 4-11 via CH2(3,3'-bipyridine-6,6')CH2
SMILES: CC(=O)N[C@@H](CC(C)C)C(=O)N[C@H](C(=O)N[C@@H](Cc1ccccc1)C(=O)N[C@H]1CSCc2ccc(cn2)-c2ccc(nc2)CSC[C@@H](C(=O)N[C@@H](CO)C(N)=O)NC(=O)[C@H](CC(C)C)NC(=O)[C@H](CCCNC(=N)N)NC(=O)[C@H](C)NC(=O)[C@H](Cc2c[nH]c3ccccc23)NC(=O)[C@H](Cc2ccc(O)cc2)NC(=O)[C@H](CCCNC(=N)N)NC1=O)[C@@H](C)O
notes: Printed as LTFC"RYWARLC"S
B5 gave an IC50 in test [1] of 1520 nM.

B6: PDI analog 1a (Bph cross-linked L,L-dicysteine peptide) (peptide)
peptide: Ac-LTFCHYWAQLCS-NH2
modifications: linker 4-11 via Biphenyl(4,4'-CH2)2
notes: Printed as LTFC'HYWAQLC'S (C' = Bph-linked cysteine)
Regarding B6, the IC50 was 4810 nM in [1] and 39 nM in test [3].

Regarding Ac-LTFCHYWAQLCS-NH2 (cysteine pairing not given here, not cross-linked; also called peptide 1) [PDI analog 1 (linear L,L-dicysteine peptide)], the figures for the IC50 in [1] and in [3] were 1850 nM and 57 nM, respectively.

For the molecule Ac-LTFCRYWARLCS-NH2 (linker 4-11 via Biphenyl(4,4'-CH2)2, Printed as LTFC'RYWARLC'S) [PDI analog 2a (Bph cross-linked, two arginines)], the IC50 in [1] amounted to 5520 nM; in [3], 244 nM.

B7: Cross-linked Noxa peptide 5a (Bph, L,L-cysteines at 77/84) (peptide)
peptide: AAXLRRIGDXVNLRQKLLN
modifications: Cys 3 and Cys 10 of the peptide (NoxaB 77 and 84) cross-linked by Bph; N-terminal acetyl; C-terminal amide
As to B7, in the test with GST-Mcl-1 [4], the “fold increase in activity” value is 67 fold. Moreover, the IC50 with GST-Mcl-1 [5] came out at 18 nM; with GST-Mcl-1 [6] it was 75 nM.

B8: Fluorescein-labeled cross-linked Noxa peptide 6a (peptide)
peptide: AAXLRRIGDXVNLRQKLLN
modifications: N-terminal FITC-Ahx; D-cysteine at position 3; D-Cys 3 and L-Cys 10 cross-linked by Bph; C-terminal amide
notes: also called Fl-6a; Fluo-6a
With B8, the “fold selectivity for Mcl-1 over Bcl-xL” value in the test with GST-Mcl-1 [7] was above 2000 fold. Further, the dissociation constant (Kd) with GST-Mcl-1 [8] was 0.7 nM; with GST-Bcl-xL, above 2000 nM.

B9: PDI analog 3a (Bph cross-linked D,L-dicysteine peptide) (peptide)
peptide: Ac-LTF[dC]HYWAQLCS-NH2
modifications: linker 4-11 via Biphenyl(4,4'-CH2)2
SMILES: CC(=O)N[C@@H](CC(C)C)C(=O)N[C@H](C(=O)N[C@@H](Cc1ccccc1)C(=O)N[C@@H]1CSCc2ccc(cc2)-c2ccc(cc2)CSC[C@@H](C(=O)N[C@@H](CO)C(N)=O)NC(=O)[C@H](CC(C)C)NC(=O)[C@H](CCC(N)=O)NC(=O)[C@H](C)NC(=O)[C@H](Cc2c[nH]c3ccccc23)NC(=O)[C@H](Cc2ccc(O)cc2)NC(=O)[C@H](Cc2c[nH]cn2)NC1=O)[C@@H](C)O
notes: Printed as LTFc'HYWAQLC'S
In the case of B9, the values for the IC50 in test [1] and in test [3] were 22 nM and 8.3 nM, respectively. In addition, in [2], the “fold increase in MDMX activity” value came to 15 fold.

B10: Cross-linked Noxa peptide 7a (Bph, L,L-cysteines at 80/87) (peptide)
peptide: Ac-AAQLRCIGDKVNCRQKLLN-NH2
modifications: linker 6-13 via Biphenyl(4,4'-CH2)2
SMILES: CC[C@H](C)[C@@H]1NC(=O)[C@@H](NC(=O)[C@H](CCCNC(=N)N)NC(=O)[C@H](CC(C)C)NC(=O)[C@H](CCC(N)=O)NC(=O)[C@H](C)NC(=O)[C@H](C)NC(C)=O)CSCc2ccc(cc2)-c2ccc(cc2)CSC[C@@H](C(=O)N[C@@H](CCCNC(=N)N)C(=O)N[C@@H](CCC(N)=O)C(=O)N[C@@H](CCCCN)C(=O)N[C@@H](CC(C)C)C(=O)N[C@@H](CC(C)C)C(=O)N[C@@H](CC(N)=O)C(N)=O)NC(=O)[C@H](CC(N)=O)NC(=O)[C@H](C(C)C)NC(=O)[C@H](CCCCN)NC(=O)[C@H](CC(=O)O)NC(=O)CNC1=O
notes: Printed as AAQLRC'IGDKVNC'RQKLLN
B10: the figures for the IC50 in the test with GST-Mcl-1 [5] and with GST-Mcl-1 [6] were 32 nM and 37 nM, respectively.

Ac-LTF[dC]RYWARLCS-NH2 (linker 4-11 via Biphenyl(4,4'-CH2)2, Printed as LTFc'RYWARLC'S) [PDI analog 4a (Bph cross-linked D,L-dicysteine peptide, two arginines)]: the IC50 in [1] amounted to 4490 nM; in test [3], 208 nM.

B11: Cross-linked Noxa peptide 5b (Bpy, L,L-cysteines at 77/84) (peptide)
peptide: AAXLRRIGDXVNLRQKLLN
modifications: Cys 3 and Cys 10 of the peptide (NoxaB 77 and 84) cross-linked by Bpy; N-terminal acetyl; C-terminal amide
Regarding B11, in the test with GST-Mcl-1 [9], the “fold improvement over the parent peptide” value turned out to be 14 fold. Further, the IC50 with GST-Mcl-1 [5] worked out at 45 nM; with GST-Mcl-1 [6], 25 nM.

B12: Cross-linked Noxa peptide 8a (Bph, alpha-methyl-L-cysteines at 77/84) (peptide)
peptide: AAXLRRIGDXVNLRQKLLN
modifications: alpha-methyl-L-cysteine at positions 3 and 10, cross-linked by Bph; N-terminal acetyl; C-terminal amide
B12 registered an IC50 with GST-Mcl-1 [5] of 230 nM.

For AAXLRRIGDXVNLRQKLLN (N-terminal FITC-Ahx; Cys 3 and Cys 10 cross-linked by Bph; C-terminal amide, also called Fl-5a; Fluo-5a) [Fluorescein-labeled cross-linked Noxa peptide 5a], the “fold selectivity for Mcl-1 over Bcl-xL” value in the test with GST-Mcl-1 [7] is above 2000 fold. Besides, the Kd with GST-Mcl-1 [8] is 0.8 nM; with GST-Bcl-xL, above 2000 nM.

B13: Cross-linked Noxa peptide 6b (Bpy, D-Cys 77 / L-Cys 84) (peptide)
peptide: AAXLRRIGDXVNLRQKLLN
modifications: D-cysteine at position 3; D-Cys 3 and L-Cys 10 cross-linked by Bpy; N-terminal acetyl; C-terminal amide
Turning to B13, the 50% inhibitory concentration (IC50) with GST-Mcl-1 [5] and with GST-Mcl-1 [6] was 140 nM throughout.

B14: PDI analog 3 (linear (D,L)-dicysteine peptide) (peptide)
peptide: LTF[dC]HYWAQLCS-NH2
modifications: not fully specified (N-terminus); printed as LTFcHYWAQLCS; cysteine pairing not given here
notes: not cross-linked; also called peptide 3
As to B14, the IC50 worked out at 339 nM in test [1] and 13 nM in test [3]. The “fold increase in MDM2 activity” value in test [10] was above 3 fold.

For orientation: IC50 means the concentration at which inhibition is half-maximal. A low value points to greater potency. The term Kd denotes the constant that tells how readily two partners part at equilibrium.

Values taken from patent US20140057857A1 (RESEARCH FOUNDATION FOR THE STATE UNIVERSITY OF NEW YORK, published 2014).
